Conditions in all cases: glycan lost; control: wild-type VMO1-myc-his6
The nature of data set [1]: anti-myc western blot of total cell lysates. On the technique in general: Immunoblotting shows a protein as a band on a membrane.
A short description of data set [2]: anti-myc western blot of conditioned media.
The nature of data set [3]: cycloheximide chase, western blot of lysates.

B1: vitelline membrane outer layer protein 1 homolog (VMO1): W105F (protein)
parent chain: MERGAGAKLLPLLLLLRATGFTCAQTDGRNGYTAVIEVTSGGPWGDWAWPEMCPDGFFASGFSLKVEPPQGIPGDDTALNGIRLHCARGNVLGNTHVVESQSGSWGEWSEPLWCRGGAYLVAFSLRVEAPTTLGDNTAANNVRFRCSDGEELQGPGLSWGDFGDWSDHCPKGACGLQTKIQGPRGLGDDTALNDARLFCCRS
Take B1: the expression_or_secretion entry in data set [1] is recorded as “increases”; in data set [2] it was “no change”. Moreover, the degradation_or_half_life result in data set [3] was “increases”.

The values are drawn from publication PMC9989928.
